T1: MAGEA10 peptide on HLA-A*02:05 (human)
T1 peptide: GLYDGMEHL


Biological target: T1, MAGEA10 peptide on HLA-A*02:05
Assay: multimer staining

Row | Binder | binding result
1 | MAGEA10 TCR M8 (patient 2) (TCR, V domains shown) Valpha: EDKVVQSPLSLVVHEGDTVTLNCSYEVTNFRSLLWYKQEKKAPTFLFMLTSSGIEKKSGRLSSILDKKELSSILNITATQTGDSAIYLCAVCDSWGKLQFGAGTQVVVTP Vbeta: NAGVTQTPKFQVLKTGQSMTLQCAQDMNHNSMYWYRQDPGMGLRLIYYSASEGTTDKGEVPNGYNVSRLNKREFSLRLESAAPSQTSVYFCASSPLRDYFNEQFFGPGTRLTVL | recognises
2 | MAGEA10 TCR M5 (patient 2) (TCR, V domains shown) Valpha: AQTVTQSQPEMSVQEAETVTLSCTYDTSESDYYLFWYKQPPSRQMILVIRQEAYKQQNATENRFSVNFQKAAKSFSLKISDSQLGDAAMYFCAYRSAMYSGGGADGLTFGKGTHLIIQP Vbeta: GAGVSQSPRYKVAKRGQDVALRCDPISGHVSLFWYQQALGQGPEFLTYFQNEAQLDKSGLPSDRFFAERPEGSVSTLKIQRTQQEDSAVYLCASSLGGSFQPQHFGDGTRLSIL | recognises
3 | MAGEA10 TCR M2 (patient 2) (TCR, V domains shown) Valpha: RKEVEQDPGPFNVPEGATVAFNCTYSNSASQSFFWYRQDCRKEPKLLMSVYSSGNEDGRFTAQLNRASQYISLLIRDSKLSDSATYLCVHMEYGNKLVFGAGTILRVKS Vbeta: NAGVTQTPKFRILKIGQSMTLQCTQDMNHNYMYWYRQDPGMGLKLIYYSVGAGITDKGEVPNGYNVSRSTTEDFPLRLELAAPSQTSVYFCASTLAGRAYEQYFGPGTRLTVT | recognises
4 | MAGEA10 TCR M6 (patient 2) (TCR, V domains shown) Valpha: SQQGEEDPQALSIQEGENATMNCSYKTSINNLQWYRQNSGRGLVHLILIRSNEREKHSGRLRVTLDTSKKSSSLLITASRAADTASYFCATDAYNFNKFYFGSGTKLNVKP Vbeta: EPEVTQTPSHQVTQMGQEVILRCVPISNHLYFYWYRQILGQKVEFLVSFYNNEISEKSEIFDDQFSVERPDGSNFTLKIRSTKLEDSAMYFCASRANTGELFFGEGSRLTVL | recognises
5 | MAGEA10 TCR M9 (patient 2) (TCR, V domains shown) Valpha: QKEVEQNSGPLSVPEGAIASLNCTYSDRGSQSFFWYRQYSGKSPELIMFIYSNGDKEDGRFTAQLNKASQYVSLLIRDSQPSDSATYLCAVKGSGTSYGKLTFGQGTILTVHP Vbeta: DSGVTQTPKHLITATGQRVTLRCSPRSGDLSVYWYQQSLDQGLQFLIQYYNGEERAKGNILERFSAQQFPDLHSELNLSSLELGDSALYFCASSLTGYEQFFGPGTRLTVL | recognises
6 | MAGEA10 TCR M3 (patient 2) (TCR, V domains shown) Valpha: GIQVEQSPPDLILQEGANSTLRCNFSDSVNNLQWFHQNPWGQLINLFYIPSGTKQNGRLSATTVATERYSLLYISSSQTTDSGVYFCAVGVLRDYKLSFGAGTTVTVRA Vbeta: EPEVTQTPSHQVTQMGQEVILRCVPISNHLYFYWYRQILGQKVEFLVSFYNNEISEKSEIFDDQFSVERPDGSNFTLKIRSTKLEDSAMYFCASIQGTGLAYTFGSGTRLTVV | recognises
7 | MAGEA10 TCR M4 (patient 2) (TCR, V domains shown) Valpha: KQEVTQIPAALSVPEGENLVLNCSFTDSAIYNLQWFRQDPGKGLTSLLLIQSSQREQTSGRLNASLDKSSGRSTLYIAASQPGDSATYLCAVAVFPGNQFYFGTGTSLTVIP Vbeta: EPEVTQTPSHQVTQMGQEVILRCVPISNHLYFYWYRQILGQKVEFLVSFYNNEISEKSEIFDDQFSVERPDGSNFTLKIRSTKLEDSAMYFCASNLGQAIKYTFGSGTRLTVV | recognises
8 | MAGEA10 TCR M1 (patient 2) (TCR, V domains shown) Valpha: SQQGEEDPQALSIQEGENATMNCSYKTSINNLQWYRQNSGRGLVHLILIRSNEREKHSGRLRVTLDTSKKSSSLLITASRAADTASYFCATVFYGNNRLAFGKGNQVVVIP Vbeta: DAGVTQSPTHLIKTRGQQVTLRCSPISGHKSVSWYQQVLGQGPQFIFQYYEKEERGRGNFPDRFSARQFPNYSSELNVNALLLGDSALYLCASSFFPDSNQPQHFGDGTRLSIL | recognises
